Changes are numbered by the printed parent chain.
B1: cr009 (nucleic acid)
guide: GTGTAAGAGCTAAGCTGGAAACAGCATAGCAAGTTTAAATAAGGCTAGTCCGTTATCAACTTGAAAAAGTGGCACCGAGTCGGTGCT
modifications: listed as DNA, chemistry not fully specified
B2: cr386 (nucleic acid)
guide: B1 guide with G3T, T34G, T61C, A68G
modifications: listed as DNA, chemistry not fully specified
B3: cr950 (nucleic acid)
guide: B1 guide with G3T, A31T, T34G, T54G
modifications: listed as DNA, chemistry not fully specified
B4: cr320 (nucleic acid)
guide: B1 guide with G3T, A32T, A65G
modifications: listed as DNA, chemistry not fully specified
B5: cr946 (nucleic acid)
guide: B1 guide with G3T, G43C, C51G, T62G, A67C, A74G, T84C
modifications: listed as DNA, chemistry not fully specified
B6: cr096 (nucleic acid)
guide: B1 guide with G3T, A5G, A6T
modifications: listed as DNA, chemistry not fully specified
B7: cr986 (nucleic acid)
guide: B1 guide with G3T, T49G
modifications: listed as DNA, chemistry not fully specified
B8: cr711 (nucleic acid)
guide: B1 guide with G3T, T34G, G72C, C86G
modifications: listed as DNA, chemistry not fully specified
B9: cr012 (nucleic acid)
guide: B1 guide with G3T, T4G
modifications: listed as DNA, chemistry not fully specified
B10: cr581 (nucleic acid)
guide: B1 guide with G3T, A37T
modifications: listed as DNA, chemistry not fully specified
B11: cr542 (nucleic acid)
guide: B1 guide with G3T, T34A, T54C, A58G
modifications: listed as DNA, chemistry not fully specified
B12: cr958 (nucleic acid)
guide: B1 guide with G3T, G33C, C76T, G82A
modifications: listed as DNA, chemistry not fully specified
B13: cr547 (nucleic acid)
guide: B1 guide with G3T, A41G, G79A
modifications: listed as DNA, chemistry not fully specified
B14: cr080 (nucleic acid)
guide: B1 guide with G1T, G3T, A5T
modifications: listed as DNA, chemistry not fully specified
B15: cr048 (nucleic acid)
guide: B1 guide with G1T, G3T, T4C
modifications: listed as DNA, chemistry not fully specified
B16: cr492 (nucleic acid)
guide: B1 guide with G3T, A55C
modifications: listed as DNA, chemistry not fully specified
B17: cr745 (nucleic acid)
guide: B1 guide with G3T, G43A
modifications: listed as DNA, chemistry not fully specified
B18: cr085 (nucleic acid)
guide: B1 guide with G3T, A5T, A6T
modifications: listed as DNA, chemistry not fully specified
B19: cr410 (nucleic acid)
guide: B1 guide with G3T, A59G, A65G, T70C
modifications: listed as DNA, chemistry not fully specified
B20: cr454 (nucleic acid)
guide: B1 guide with G3T, G43T, C51A, A59C, T70G, C73T, G85A
modifications: listed as DNA, chemistry not fully specified
B21: cr700 (nucleic acid)
guide: B1 guide with G3T, A41T, A78C
modifications: listed as DNA, chemistry not fully specified
B22: cr952 (nucleic acid)
guide: B1 guide with G3T, A31T, T49G, T54A
modifications: listed as DNA, chemistry not fully specified
B23: cr922 (nucleic acid)
guide: B1 guide with G3T, T34G, C75A, G83T
modifications: listed as DNA, chemistry not fully specified
B24: cr627 (nucleic acid)
guide: B1 guide with G3T, G43T, C51A, A65G
modifications: listed as DNA, chemistry not fully specified
B25: cr641 (nucleic acid)
guide: B1 guide with G3T, T34G
modifications: listed as DNA, chemistry not fully specified
B26: cr032 (nucleic acid)
guide: B1 guide with T2A, G3T, A5G
modifications: listed as DNA, chemistry not fully specified
B27: cr043 (nucleic acid)
guide: B1 guide with T2G, G3T, A5T
modifications: listed as DNA, chemistry not fully specified
B28: cr737 (nucleic acid)
guide: B1 guide with G3T, C75G, C76G, G77C, A78T, C81G, G83C
modifications: listed as DNA, chemistry not fully specified
B29: cr633 (nucleic acid)
guide: B1 guide with G3T, A28G, G33T, A42C
modifications: listed as DNA, chemistry not fully specified
B30: cr935 (nucleic acid)
guide: B1 guide with G3T, A41G, A65C
modifications: listed as DNA, chemistry not fully specified

What follows are molecules tested on K562 CRISPRi cells (assay: Constant region variant library pooled growth screen, K562). Conditions: sgRNA constant region variants; activity relative to the original, un-modified constant region cr995.
Format: cell-based, human
Method in brief: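 Library of sgRNA constant-region variants, each paired with 36 targeting sequences (essential-gene and non-targeting), transduced in duplicate into K562 CRISPRi cells, puromycin-selected and grown 4–8 days at >2000× coverage. Activity per variant is its growth phenotype normalised to the same targeting sequence with unmodified constant region.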
B1 showed a Mean relative activity of 0.02783. B2 showed a Mean relative activity of 0.02428. B3 gave a Mean relative activity of 0.0224. Work on B4 yielded a Mean relative activity of 1.035. B5 gave a Mean relative activity of 0.0237. In the case of B6, the Mean relative activity is reported as 0.02764. Molecule B7 has a Mean relative activity of 0.0258. In the case of B8, the Mean relative activity is reported as 0.0267. Molecule B9 has a Mean relative activity of 0.02769. Molecule B10 has a Mean relative activity of 0.02488. B11 showed a Mean relative activity of 0.02115. B12 was tested, and the Mean relative activity was 0.0249. For B13, the Mean relative activity was 0.02194. B14 gave a Mean relative activity of 0.02323. B15 showed a Mean relative activity of 0.02761. Work on B16 yielded a Mean relative activity of 1.034. B17 was tested, and the Mean relative activity was 0.02631. With B18 the Mean relative activity was 0.02666. B19 gave a Mean relative activity of 1.034. Work on B20 yielded a Mean relative activity of 0.02618. B21 gave a Mean relative activity of 0.02103. For B22, the Mean relative activity was 0.02621. In the case of B23, the Mean relative activity is reported as 0.02327. In the case of B24, the Mean relative activity is reported as 0.02763. With B25 the Mean relative activity was 0.02687. With B26 the Mean relative activity was 0.02646. Molecule B27 has a Mean relative activity of 0.0245. With B28 the Mean relative activity was 0.02539. Work on B29 yielded a Mean relative activity of 0.02445. In the case of B30, the Mean relative activity is reported as 0.02413.

Reference: patent publication US20220259593A1, “CONTROL OF MAMMALIAN GENE DOSAGE USING CRISPR” (The Regents of the University of California, priority 2019, published 2022)
